Measurements as given in publication PMC6003574, “Selection of a novel CD19 aptamer for targeted delivery of doxorubicin to lymphoma cells”.

Target: CD19 extracellular domain (Homo sapiens, UniProt P15391 20-291)
Assay: flow cytometry on protein-coated beads; PBS, 37 C; PBS, 37 C, 30 min, three PBS washes; bead flow cytometry, random ssDNA pool as background; pH not stated
Conditions: protein: commercial; label: FITC (flow cytometry); Cy3 (confocal); FITC at 5' end in selection primer

Sequence of CD19 extracellular domain (P15391 20-291): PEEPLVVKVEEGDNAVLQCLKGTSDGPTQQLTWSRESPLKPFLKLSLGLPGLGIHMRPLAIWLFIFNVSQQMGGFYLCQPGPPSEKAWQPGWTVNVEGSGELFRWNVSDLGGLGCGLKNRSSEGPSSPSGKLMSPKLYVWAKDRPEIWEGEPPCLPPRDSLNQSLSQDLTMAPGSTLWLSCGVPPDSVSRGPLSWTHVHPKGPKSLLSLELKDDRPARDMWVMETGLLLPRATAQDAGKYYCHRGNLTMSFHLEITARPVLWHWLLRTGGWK

B1: LC1 (ssDNA)
DNA: TGCGTGTGTAGTGTGTCTGTTCTCCTTTTTTTGGTTGCTGCTCTTAGGGATTTGGGCGG
With B1 the Kd was 85.4 nM.
